Measurements taken from the nanobody polyreactivity screen of Harvey et al. (2022).

assay: yeast display, Sf9 membrane polyspecificity reagent, FACS + sequencing; frameworks hold sequencing errors
Method in brief: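 Galactose-induced (36–48 hours) yeast carrying a synthetic nanobody display library were exposed to 10% biotinylated, detergent-solubilized Sf9 membrane reagent at 4 °C for 1 hour. FACS followed streptavidin microbead enrichment, using low and high (top ~1%) gates for expression (anti-HA) and reagent binding (streptavidin). Colony PCR, MiSeq 2 × 250 sequencing and CDR-length filtering followed. Labels for polyreactivity reflect the gate of origin.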

| Sequence | polyreactivity (PSR sort gate) |
| --- | --- |
| QVQLVESGGGLVQAGGSLRLSCAASGYIFATYAMGWYRQAPGKERELVAAITSTGSTYYADSVKGRFTISRDNAKNTVYLQMNSLKPEDTAVYYCAAVSGYRARYYLYYYWGQGTQVTVSA | high polyreactivity |
| QVQLVESGGGLVQAGGSLRLSCAASGSTFSKYTMGWYRQAPGKERELVAAISRSGGRTYYADSVKGRFTISRDNAKNTVYLQMNSLKPEDTAVYYCATVVYVFGYSSPMYYWGQGTQVTVSS | high polyreactivity |
| QVQLVESGGGLVQAGGSLRLSCAASGSTFSLYAMGWYRQAPGKERELVAAITYSGTSTYYADSVKGRFTISRDNAKNTVYLQMNSLKPEDTAVYYCNVESWGGHDFTWAVTSGGYWGQGTQVTVSS | low polyreactivity |
| QVQLVESGGGLVQAGGSLRLSCAASGRIFKYYTMGWYRQAPGKERELVAAISRDDSTNYADSVKGRFTISRDNAKNTVYLQMNSLKPEDTAVYYCAKGYHQYAGFYYWGLGTQVTVSS | high polyreactivity |
| QVQLVESGGGLVQAGCSLRLTCAASGFIFYYNAMGWYRQAPGKQKELVAAISWSDGGTYYADSVKGRFTISRDNAKNTVSLQMNRLKPEDTAVYYFSGDIDNWSEYDYWGQGTQVTVSS | low polyreactivity |
| QVQLVESGGGLVQAGGSLRLSCAASGSIFYHYAMGWYRQAPGKERELVATINWSGGSTYYADSVKGRFTISRDNAKNTVYLQMNSLKPEDTAVYYCYSDSAIGLYVSSTPYGYDYWGQGTQVTVSS | low polyreactivity |
| QVQLVESGGGLVQAGGSLRLSCAASGSTFSRYAMRWYRQAPGKEMELVAAISSRGGSTYYADSVKGRFTISRDNAMNTVYLQMNSLKPEDTAFYYCAVKSYRLTGRGYWGQGTQVTVSS | high polyreactivity |
| QVQLVESGGGLVQAGGSLRLSCAASGLTFVDNAMGWYRQAPRKERELVAGITQSGGSTNYADSVKGRFTISRDNAKNTVYLQMNSLKPEDTAVYYCAKDTYRAYFRWEYGYWGQGTQVTVSS | low polyreactivity |
| QVQLVESGGGLVQAGGSLRLSCAASGSTFYPNAMGWYRQAPGKERELVAAITDSVGTTNYADSVKGRFTISRDNAKNTVYLQINSLKPEDTAVYYCTAPIGGSYNTRRAAEYDYWGQGTQVTVSS | low polyreactivity |
| QLKHEESRGGLVQAGGSLRLSCAASGSTIYTYVMGWYRQAPGNERELVAAISWSGSSTYYADSVKGRFTISRDNAKNTVYLHMNSLKPEDTAVYYCNADPSQHTSAGYSSYEYYYWGQGTQVTVSS | low polyreactivity |
| QVQLVESGGGLVQAGGSLRLSCAASGSTFDGYAMGWYRQAPGKERELVAAISSSGAYTYYADSVKGRFTISRDIAKNTVFLQMNSLKPEDTAVYYCNRVTYQQKNDYCGQGTQVTVSS | high polyreactivity |
| QVQLVESGGGLVQAGGSLRLSCASSGSIFFLYAMGWYRQAPGKERELVAAITGSGSRTYYADSVKGRFTISRDNEKNTVYLHMNSLKPEYTAVYYCAARYYGAYGKQPRARYGYWGKGTQVTVSS | high polyreactivity |
| QVQLVESGGGLVQAGGSLRLSCAASGATFAQYAMGWYRQAPGKERELVAAISRGGGSTYCADSVKGRFTISRDNAKNTVYLQMNSLKPEDTAVYYCAADPRYRVTLGFDYWGQGSQVTVSS | high polyreactivity |
| QVQLVESGGGLVQAGGSLRLSCAASGFIFERNAMGWYRQAPGKERELVAGISNNGGSTYYADSVKGRFTISRDNAKNTVYLQMNSLKPEDTAVYYCARDPNDDNSFPYDYWGQGTQVTVSS | low polyreactivity |
| QVQLVESGGGLVQAGGSLRLSCAASGYTIGIYAMGWYRQAPGKERELVAAISFSDGTTYYADSVKGRFTISRDNAKNTVYLQMNSLKPEDTAVYYCAAAAGGTVVGEGDYWGQGTQVTVSS | low polyreactivity |
| QVQLVESGGGLVQAGGSLRLSCAASGSIFWTNAMGWYRQAPGKERELVAAIRVSTGSTYYADSVKGRFTISRDIAKNNVYLQMNSLKPEDTAVYYCNADLYIYEWYPALHSNDYWGQGTQVTVSS | low polyreactivity |
